The source of these data is US20240352477A1 (ACADEMIA SINICA, published 2024).

In one assay the target is T1, HXK5-GFP (Ubi:HXK5-GFP) (rice, UniProt Q5W676 1-507).
T1 construct: Expressed transiently in rice protoplasts; not shown: GFP reporter (pUbi:ccdB-GFP vector)
In words: co-IP with RFP-Trap from co-transfected rice protoplasts, immunoblot. As for the experimental part:
(§1) FIGS. 13a to 13b. CIPK15 and HXK5/6 interact and localize at mitochondria under aerobic and hypoxic conditions. (FIG. 13a) Rice protoplasts were co-transfected with Ubi:CIPK15-mCherry and Ubi:HXK5-GFP, Ubi:HX6-GFP or Ubi:GFP (as negative control), before being cultured in medium containing 400 mM glucose with shaking (aerobic) for 12 h. Then, total proteins were extracted and pulled down using RFP trap®. Anti-RFP and anti-GFP antibodies were used to detect co-immunoprecipitated (co-IP) CIPK15-mCherry and HXK5-GFP or GFP, respectively. (FIG. 13b) Rice protoplasts were transfected with Ubi:CIPK15-mCherry, Ubi:HXK5-mCherry or Ubi:HXK6-mCherry and stained with the mitochondrial marker MitoTracker® Green FM, before being examined under confocal microscopy. T: Transmission image. Scale bar=[…]. […]
(§2) To explore these latter interactions in vivo using co-IP assays, we co-transfected rice protoplasts with Ubi:CIPK15-mCherry and Ubi:HXK5-GFP, Ubi:HXK6-GFP or Ubi:GFP (negative control) constructs. […] Our anti-RFP antibodies detected CIPK15-mCherry proteins in all eluents of CIPK15-mCherry co-IP fractions, but anti-GFP antibodies detected HXK5-GFP and HXK6-GFP present in the CIPK15-mCherry complex (FIG. 13a).
A general note: Immunoblotting shows a protein as a band on a membrane.

For the next assay, the target named is T2, HXK6-GFP (Ubi:HXK6-GFP) (rice, UniProt Q8LQ68 1-506).
T2 construct: Expressed transiently in rice protoplasts; also called Ubi:HX6-GFP; not shown: GFP reporter (pUbi:ccdB-GFP vector)
Described as above. As for the experimental part:
as §1, §2

In assay [1] the target is T3, HXK5-nYFP (CaMV35S:HXK5-nYFP) (rice, UniProt Q5W676 1-507).
T3 construct: BiFC construct in rice protoplasts; not shown: N-terminal half of YFP (nYFP, p35S:ccdB-nYFP vector)
Kind of assay: bimolecular fluorescence complementation (BiFC) in rice protoplasts. As for the experimental part: (§3) FIGS. 3a to 3g. HXK6 and VDAC1 interact with CIPK15 on mitochondria and suppress CIPK15-regulated promoters. (FIG. 3a) BiFC assay in which rice protoplasts were co-transfected with CaWV35S:cYFP-CIPK15 or CaWV-nYFP (negative control) and CaMV35S:HXK5/6-nYFP or CaMV35S:cYFP (negative control). (FIG. 3b, FIG. 3c, FIG. 3f) Rice protoplasts were transfected with plasmids, cultured in medium containing 400 mM glucose with shaking for 12 h, and then examined under confocal microscopy. Scale bar=[…]. C: cytoplasm; Mt: mitochondria. (FIG. 3b) Rice protoplasts were co-transfected with Ubi:CIPK15-mTagBFP and Ubi:HXK6-mCherry and stained with the mitochondrial marker MitoTracker® Green FM. (FIG. 3c) Rice protoplasts were co-transfected with Ubi:CIPK15-mCherry and Ubi:GFP, Ubi:HXK6-GFP, or Ubi:HXK6(Ri) constructs. (FIG. 3d, FIG. 3g) Rice protoplasts were co-transfected with effector and reporter plasmids, cultured in medium contained 400 mM glucose with shaking, and assayed for luciferase activity. (FIG. 3e) Rice protoplasts were co-transfected with Ubi:VDAC1-GFP, Ubi:CIPK15-HA and Ubi:HXK6-GFP or Ubi:HXK6-mCherry, cultured in medium containing 400 mM glucose with shaking for 12 h, and total proteins were extracted and pulled down using GFP trap®. Anti-GFP, anti-HA and anti-mRFP antibodies were used to detect HXK6-GFP or VDAC1-GFP, CIPK15-HA, and HXK6-mCherry, respectively. […]

Assay [2] deals with T4, HXK6-nYFP (CaMV35S:HXK6-nYFP) (rice, UniProt Q8LQ68 1-506).
T4 construct: BiFC construct in rice protoplasts; not shown: N-terminal half of YFP (nYFP, p35S:ccdB-nYFP vector)
The description is as above. As for the experimental part: as §3

In assay [3] the target is T5, HXK6-mCherry (Ubi:HXK6-mCherry) (rice, UniProt Q8LQ68 1-506).
T5 construct: Expressed transiently in rice protoplasts; not shown: mCherry reporter (pUbi:ccdB-mCherry vector)
Kind of assay: co-IP with GFP-Trap from co-transfected rice protoplasts, immunoblot. As for the experimental part: Samples were extracted from rice protoplasts in lysis buffer containing 150 mM NaCl, 0.5% NP4-0, 20 mM Tris-HCl (pH 7.5), and protease inhibitor (Roche) for 1 h at 4° C. and centrifuged at 13,000 rpm for 30 min at 4° C. Supernatants were transferred to new tubes and GFP- or RFP-conjugated proteins were pulled down with GFP-Trap®_MA beads or RFP-Trap®_MA beads. Precipitated proteins were subjected to immunoblot analysis using anti-RFP and anti-GFP antibodies.

T1 sequence (Q5W676 whole entry): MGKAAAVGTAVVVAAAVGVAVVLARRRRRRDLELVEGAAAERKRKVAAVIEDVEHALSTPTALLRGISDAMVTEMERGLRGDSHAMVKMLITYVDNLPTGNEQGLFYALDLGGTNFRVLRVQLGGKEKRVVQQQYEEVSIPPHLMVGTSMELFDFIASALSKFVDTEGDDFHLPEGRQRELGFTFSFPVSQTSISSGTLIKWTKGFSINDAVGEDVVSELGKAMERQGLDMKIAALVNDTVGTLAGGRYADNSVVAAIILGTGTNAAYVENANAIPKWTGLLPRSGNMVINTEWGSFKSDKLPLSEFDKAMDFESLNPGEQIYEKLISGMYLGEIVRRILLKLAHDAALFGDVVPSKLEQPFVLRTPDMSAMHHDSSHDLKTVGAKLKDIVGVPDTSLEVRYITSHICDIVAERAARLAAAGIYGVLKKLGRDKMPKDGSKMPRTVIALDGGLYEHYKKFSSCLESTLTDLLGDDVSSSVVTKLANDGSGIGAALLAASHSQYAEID
T3 sequence (Q5W676 whole entry): as above
T5 sequence (Q8LQ68 whole entry): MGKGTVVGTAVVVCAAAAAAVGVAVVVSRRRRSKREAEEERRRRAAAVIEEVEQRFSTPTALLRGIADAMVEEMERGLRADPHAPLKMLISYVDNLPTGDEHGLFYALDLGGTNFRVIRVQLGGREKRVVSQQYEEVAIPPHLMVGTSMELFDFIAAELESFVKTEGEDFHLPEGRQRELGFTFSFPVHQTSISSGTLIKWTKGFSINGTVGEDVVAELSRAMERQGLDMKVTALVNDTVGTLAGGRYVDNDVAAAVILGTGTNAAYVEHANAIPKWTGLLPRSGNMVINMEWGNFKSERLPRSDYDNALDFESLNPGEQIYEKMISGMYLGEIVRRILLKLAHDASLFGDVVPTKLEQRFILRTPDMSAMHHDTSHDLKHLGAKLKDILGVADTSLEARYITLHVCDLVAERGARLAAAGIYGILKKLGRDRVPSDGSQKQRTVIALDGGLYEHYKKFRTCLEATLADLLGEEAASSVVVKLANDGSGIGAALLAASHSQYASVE
T4 sequence (Q8LQ68 whole entry): as above
T2 sequence (Q8LQ68 whole entry): as above

B1: CIPK15-mCherry (Ubi:CIPK15-mCherry) (enzyme)
chain: MESRGKILMERYELGRLLGKGTFGKVHYARNLESNQSVAIKMMDKQQILKVGLSEQIRREITTMRLVAHKNIVQLHEVMATRNKIYFVMEYVKGGELFEKVAKRGKLTEVVAHKYFQQLISAVDYCHSRGVYHRDLKPENLLLDENENLKVSDFGLSALSESKRQDGLLHTTCGTPAYVAPEVISKIGYDGAKSDIWSCGVILFVLVAGYLPFQGPNLMEMYRKIQHGEFRCPGWFSRKLQKLLYKIMDPNPSTRISIQKIKESTWFRKGPEENRILKERTLNENTTKNVAPVLGVRRKKNAHEDVKPMSVTNLNAFEIISFSKGFDLSGMFIVKEWRNEARFTSDKSASTIISKLEDVAKALNLRVRKKDNGVVKMQGRKEGRNGVLQFDIEIFEVTTSYHIIEMKQTSGDSLEYRQLLEEGIRPALKDIVLA
notes: Expressed transiently in rice protoplasts; not shown: mCherry reporter (pUbi:ccdB-mCherry vector)
As for B1, the binding result with HXK5-GFP (Ubi:HXK5-GFP) and with HXK6-GFP (Ubi:HXK6-GFP) was “binds” each time.

B2: cYFP-CIPK15 (CaMV35S:cYFP-CIPK15) (enzyme)
chain: MESRGKILMERYELGRLLGKGTFGKVHYARNLESNQSVAIKMMDKQQILKVGLSEQIRREITTMRLVAHKNIVQLHEVMATRNKIYFVMEYVKGGELFEKVAKRGKLTEVVAHKYFQQLISAVDYCHSRGVYHRDLKPENLLLDENENLKVSDFGLSALSESKRQDGLLHTTCGTPAYVAPEVISKIGYDGAKSDIWSCGVILFVLVAGYLPFQGPNLMEMYRKIQHGEFRCPGWFSRKLQKLLYKIMDPNPSTRISIQKIKESTWFRKGPEENRILKERTLNENTTKNVAPVLGVRRKKNAHEDVKPMSVTNLNAFEIISFSKGFDLSGMFIVKEWRNEARFTSDKSASTIISKLEDVAKALNLRVRKKDNGVVKMQGRKEGRNGVLQFDIEIFEVTTSYHIIEMKQTSGDSLEYRQLLEEGIRPALKDIVLA
notes: BiFC construct in rice protoplasts; not shown: C-terminal half of YFP (cYFP, p35S:cYFP-ccdB vector)
For B2, the binding result in assay [1] and in assay [2] was “binds” each time.

B3: VDAC1-GFP (Ubi:VDAC1-GFP) (other, rice, UniProt Q6K548 2-274, looked up)
chain: VGPGLYPEIGKKARDLLYRDYQTDHKFTLTTYTSNGVAITATSTKKADLIFGEIQSQIKNKNITVDVKANSDSNVVTTVTVDELTPGLKSILSFAVPDQRSGKFELQYSHDYAGVSASIGLTASPVVNLSSVFGTKALAVGADVSLDTATGNLTKYNAGLSFSNDDLIASLNLNNKGDSLTASYYHIVNHSATAVGAELTHSFSSNENSLTFGTQHTLDPLTVVKARFNNSGKASALLQHEWRPKSVWTISAEVDTKAIDKSSKVGIAVALKP
notes: Expressed transiently in rice protoplasts and pulled down with GFP-Trap; not shown: GFP reporter (pUbi:ccdB-GFP vector)
For the molecule B3, the binding result in assay [3] is given as “binds”.
